Laboratory results published in patent publication US20170202936A1, “Identification, Optimization And Use Of Cryptic HLA-B7 Epitopes For Immunotherapy” (VAXON BIOTECH, priority 2006, published 2017).

Target: HLA-B*0702 (human)
Test: T2-B7 cells, HLA-B*0702 surface expression (ME-1 mAb); ratio to reference peptide CMV265-274 (SEQ ID NO: 9)
Details: remark: other sources report otherwise

DPRRLVQLL [TERT444]
RA (relative affinity): > 10
